Details: Locusta migratoria, pH 7.4, CD, Na2HPO4 KH2PO4 10 mM 2 mM, NaCl 127 mM, reversible: yes, whole UniProt chain shown

B1: Apolipophorin-3b wild type, P10762 (protein)
chain: MNTLLAVLMLAVAAQARPDAAGHVNIAEAVQQLNHTIVNAAHELHETLGLPTPDEALNLLTEQANAFKTKIAEVTTSLKQEAEKHQGSVAEQLNRFARNLNNSIHDAATSAQPADQLNSLQSALTNVGHQWQTSQPRPSVAQEAWAPVQSALQEAAEKTKEAAANLQNSIQSAVQKPAN
denaturant midpoint (higher = more stable) (25 °C, GdnHCl): 0.51 M
unfolding free energy (25 °C, GdnHCl): 2.05 kcal/mol
Tm (Thermal): 53 °C

From FireProtDB (doi:10.1021/bi050502v)
